Results on five molecules are retold here after patent US20240343799A1.

In experiment [1] the target is huCD79b-N (human) (UniProt P40259). In words: BLI (ForteBio), antibody loaded on sensor, antigen in solution. A general note: BLI is a label-free optical method that tracks binding on a fibre tip over time.
The target is the same in experiment [2]. In words: BLI (ForteBio).

Numbering of substitutions follows the chain as printed.

B1: A7v14b (antibody, V domains shown)
VH: EVQLVQSGAEVKKPGASVKVSCKASGYTFTTYYMNWVRQAPGQGLEWIGMIDPSDSETHYNQKFQGRATLTVDTSTSTAYLELSSLRSEDTAVYYCSRSLAFWGQGTLVTVSS
VL: DIVMTQTPLSLPVTPGQPASISCKSSQSLLDSDGKTYLNWLLQKPGQSPQSLIYLVSKLDSGVPDRFSGSGSGTDFTLKISRVEAEDVGVYYCWQGTHFPQTFGQGTKVEIK
As a reminder, the Kd is a measure of binding affinity in units of concentration. A higher Kd goes with a looser complex. Consider B1, for which the Kd with huCD79b-N (human) [1] amounted to 8.56 nM.

B2: hz11G10.9.p1 (antibody, V domains shown)
VH: QVQLVQSGAEVKKPGASVKVSCKASGYTFTDYWVNWVRQAPGQGLEWMGMIDPSDSETHYNQMFNDRVTMTVDTSTSTVYMELSSLRSEDTAVYYCTRSNYYWGQGTLVTVSS
VL: B1 VL with P12S, D33E, Q101L, Q105G
In the experiment with huCD79b-N (human) [1], B2 gave a Kd of 3.4 nM. Against the preceding molecule, the Kd is about 2.5-fold lower.

B3: hz34F1.14 (antibody, V domains shown)
VH: QVQLVQSGAEVKKPGASVKVSCKASGYSFTTYWMNWVRQAPGQGLTWMGMIDPSDSETHYNHLFKDRVTMTVDKSTSTAYMELSSLRSEDTAVYYCTRAIGYWGQGTLVTVSS
VL: DVVMTQSPLSLPVTLGQPASISCKSSLSLLDSEGKTYLNWFQQRPGQSPRPLISLVSKLDSGVPDRFSGSGSGTDFTLKISRVEAEDVGVYYCWQGTHFPLTFGGGTKVEIK
Turning to B3, the Kd with huCD79b-N (human) [1] was determined as 8.07 nM.

B4: polmab (antibody, human IgG1, kappa, V domains shown)
VH: EVQLVESGGGLVQPGGSLRLSCAASGYTFSSYWIEWVRQAPGKGLEWIGEILPGGGDTNYNEIFKGRATFSADTSKNTAYLQMNSLRAEDTAVYYCTRRVPIRLDYWGQGTLVTVSS
VL: DIQLTQSPSSLSASVGDRVTITCKASQSVDYEGDSFLNWYQQKPGKAPKLLIYAASNLESGVPSRFSGSGSGTDFTLTISSLQPEDFATYYCQQSNEDPLTFGQGTKVEIKR
As to B4, the Kd with huCD79b-N (human) [1] amounted to 3.22 nM; with huCD79b-N (human) [2], 3.1 nM.

B5: hz38D9B3.11 (antibody, V domains shown)
VH: QVQLVQSGSELKKPGASVKVSCKASGYTFTDYSMHWVRQAPGQGLEWMGWINTETGEPSYADDFKGRFVFSLDTSVSTAYLQISSLKAEDTAVYYCYYGPYWGQGTLVTVSS
VL: EIVLTQSPATLSLSPGERATLSCKASQSVDHDVDSYMDWYQQKPGQAPRLLIYSASNLESGIPARFSGSGSGTDFTLTISSLEPEDFAVYYCQQINEYPYTFGGGTKVEIK
On to B5, for which the Kd with huCD79b-N (human) [1] was 0.275 nM. In other words, the sub-nanomolar range.
